According to patent US8871276B2, “Beta-casein assemblies for mucosal delivery of therapeutic bioactive agents” (Technion Research and Development Foundation Ltd., priority 2008, dated 2014):
Where “and” joins values, the source holds several entries; their conditions need not be identical. Equal values may be shown once. Values belong to the molecule of their own block, whether it stands above or below them.

What was measured:
Assay type in all cases: physicochemical
[1] = Light microscopy (Nomarski DIC) / visual solubility observation; settings: hepes buffer, neutral pH, with or without β-casein
Procedure: An Olympus BX51 light microscope was operated at Nomarski differential interference contrast (DIC) optics. A 5 μL drop was placed on a glass slide, covered with a cover slide. Images were recorded digitally with an Olympus DP71 digital camera connected to the light microscope. Image processing was performed using Cell A (Olympus).
Bovine β-casein (>90%; Sigma-Aldrich) was dissolved in pH 7.0 hepes buffer containing 200 mM hepes (MP Biomedicals), 10 mM MgCl2 (Sigma-Aldrich), 20 mM EGTA (Sigma-Aldrich) and 10 mM NaCl (Loba Chemie), and was placed over-night at 4° C. under stirring. The protein solutions were prepared at concentrations ranging from 0.5 to 2 wt % (0.21 to 0.83 mM respectively), and were filtered through a porous membrane of 0.45 μm to avoid large protein aggregates. […] Stirring continued for 30 minutes in room temperature. […] The specimens remained stable i.e., no precipitation was observed, for at least 3 weeks at 4° C.

[2] = Water content by Karl Fischer Coulometer
Procedure: In this experiment the water content of celocoxib (CXB), beta-casein (β-CN) 1% nanocarriers, Sigma beta-casein (β-CN, Sigma material), and CXB-loaded β-CN 1% nanocarriers was measured by Metrohm 831 Karl Fischer Coulometer.
In an attempt to reduce the water content, an additional lypholization cycle was performed for the empty and CXB-loaded β-CN 1% nanocarriers. After this second lyophilization cycle water content was measured by Metrohm 831 Karl Fischer Coulometer.
Specifically, the first cycle lasted for 24 hours (data is presented in tables 5-7) then all samples were subjected to an additional cycle of lyophilization that lasted for 48 hours (total of 72 hours). Tables 8 and 9 present the results of samples that were subjected to 24, […], and 72 hours of lyophilization.

[3] = Small angle X-ray scattering (SAXS) of micelles; settings: 1 wt % β-casein, empty or loaded 1:8 protein:celecoxib, pH ~7
Procedure: The small angle X-ray scattering equipment consisted of a SAXSess camera (Anton-Paar, Graz, Austria) connected to an X-ray generator (Philips, PW 1730/10) operating at 40 kV and 50 mA with a sealed-tube Cu anode. A Gael mirror was used to convert the divergent polychromatic X-ray beam into a focused line-shaped beam of Cu Kα radiation (λ=0.154 nm). The 2D scattering pattern was recorded by a PI-SCX fused fiber optic taper CCD camera from Princeton Instruments, which is a division of Roper Scientific, Inc. (Trenton, N.J., USA). The used CCD detector features a 2084×2084 array with 24×24 μm pixel size (chip size: 50×50 mm). The CCD was operated at −30° C. with 10° C. water-assisted cooling to reduce the thermally generated charge. Cosmic ray correction and background subtraction were performed on the 2D image before further data processing. The 2D image was integrated into the one-dimensional scattering function within a band of 10 mm. The measurement time was 30 min for each scattering curve (6 images of 5 minutes were taken to assist the cosmic ray correction).
The molecular weight of the scattering aggregates were calculated according to Eq. 1:
[formula] where M is the molecular weight, dΣ(0)/dΩ (cm^−1) the forward scattering intensity at q=0, c (g/cm^3) the β-casein concentration, NA the Avogadro number, and ΔρM (cm/g) the scattering length difference per mass, given by: ΔρM=Δρ ν (2)
The scattering length difference Δρ (cm^−2) was calculated using the known chemical composition of the protein and the solvent, and ν (cm^3/g), the specific volume of the protein in the solution that was calculated via density measurement of the solvent and the solution. The micelle aggregation number was then calculated by dividing the molecular weight of the micelles determined with Eq. 1, by the molecular weight of a single protein molecule.
For a particle of arbitrary shape with a scattering density difference of Δρ(r), the pair distance distribution function p(r) (PDDF) is given by: p(r)=r^2Δ ρ^2(r) (3) where Δ ρ^2(r) is the convolution square of Δρ(r) averaged for all directions in space. The PDDF is related to the scattered intensity l(q) by a Fourier transformation, and it enables the determination of the overall shape and size of the scattering objects.
[formula] λ is the wavelength of the incident radiation and θ is the angle between the scattered and incident beam. The function ƒ(r)=p(r)/r (6) is useful to identify flat plate-like particles, although it has no direct physical meaning. For lamellae, this function starts with a linearly increasing part and becomes almost flat when r is equal to the thickness of the lamella. For flat particles with a finite base area, the outer part decreases linearly because of boundary losses. The thickness of the lamella can then be read from the transition point.
The structural characteristics of the micelles in the two pH environments were studied by cryo-TEM and SAXS (Small Angle X-ray Scattering). Cryo-TEM was used to determine the shape of the micelles and to estimate their dimensions between 4 and 40° C. This information was further used to accurately calculate the micelles' dimensions from the SAXS data, and to study how the size and shape are affected by temperature. SAXS measurements also provided the critical micelle concentration (CMC) and the micelle aggregation numbers as a function of temperature. Experiments were performed in the concentration range of 0.1-40 mg/mL protein, at low pH (between 2.1 and 2.6) in dilute lactic acid solution (6 wt %) or HCl and in aqueous solutions at pH 6.7-7.3 in absence of salts or the presence of up to 0.1M NaCl.
SAXS measurements were used to determine the shape and dimensions of the micelles at low pH more precisely, and to evaluate the micelle molecular weight (i.e., the aggregation number). The scattering curves of 20 mg/mL β-casein in lactic acid solution (pH 2.6, IS 0.0022) at different temperatures are shown in FIG. 3a. […]

[4] = Small angle X-ray scattering (SAXS) of micelles; settings: 1 wt % β-casein, empty or loaded 1:8 protein:celecoxib, pH ~7; remark: listed apart in the source

Solubility in aqueous buffer (observation) [1]: poor solubility
Molecule: Cc1ccc(-c2cc(C(F)(F)F)nn2-c2ccc(S(N)(=O)=O)cc2)cc1 [Celecoxib, celecoxib, reference compound]

Solubility in aqueous buffer (observation) [1]: does not dissolve in buffer at all
Molecule: CC(C)CCC[C@@H](C)[C@H]1CC[C@H]2[C@@H]3CC=C4C[C@@H](O)CC[C@]4(C)[C@H]3CC[C@]12C [Cholesterol, cholesterol]

B1: β-CN: Sigma beta-casein raw material powder (protein, UniProt P02666 16-224, looked up)
Beta-casein: RELEELNVPGEIVESLSSSEESITRINKKIEKFQSEEQQQTEDELQDKIHPFAQTQSLVYPFPGPIPNSLPQNIPPLTQTPVVVPPFLQPEVMGVSKVKEAMAPKHKEMPFPKYPVEPFTESQSLTLTDVENLHLPLPLLQSWMHQPHQPLPPTVMFPPQSVLSLSQSKVLPVPQKAVPYPQRDMPIQAFLLYQEPVLGPVRGPFPIIV
Average water content of lyophilized (dried) powders ([2]; data of Tables 5-7): more than 10 % w/w
% water, AVR ([2]; β-CN Sigma material, lyophilization time none, average): 13.0%
% water ([2]; β-CN Sigma material, single sample): 15.0% and 9.4% and 14.7%

B2: β-casein dried: empty β-casein micelles after lyophilization and re-suspension (protein, UniProt P02666 16-224, looked up)
Beta-casein: RELEELNVPGEIVESLSSSEESITRINKKIEKFQSEEQQQTEDELQDKIHPFAQTQSLVYPFPGPIPNSLPQNIPPLTQTPVVVPPFLQPEVMGVSKVKEAMAPKHKEMPFPKYPVEPFTESQSLTLTDVENLHLPLPLLQSWMHQPHQPLPPTVMFPPQSVLSLSQSKVLPVPQKAVPYPQRDMPIQAFLLYQEPVLGPVRGPFPIIV
modifications: lyophilized micelles
notes: empty β-casein micelles after lyophilization and re-suspension
Rg (from Guinier apr.) [3]: 8.1 nm
V, from a, b [3]: 2841 nm^3
Density [4]: 1.23 g/mL
